Data from patent US20220119534A1 (DRAGONFLY THERAPEUTICS, published 2022).

Target: T1, De-glycosylated human CLEC12A (human, UniProt Q5QGZ9 65-265, treated with PNGaseF (N-linked glycans removed))
T1 construct: Same recombinant antigen as m2 after PNGaseF; also called De-glycosylated CLEC12A
T1 sequence: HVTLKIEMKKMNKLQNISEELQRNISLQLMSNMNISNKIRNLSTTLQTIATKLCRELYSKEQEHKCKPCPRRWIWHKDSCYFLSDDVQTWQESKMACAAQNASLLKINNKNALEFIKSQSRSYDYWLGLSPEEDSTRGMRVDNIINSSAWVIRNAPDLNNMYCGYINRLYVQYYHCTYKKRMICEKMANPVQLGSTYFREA
Assay: SPR, two-state fit
Method: Briefly, human Fc specific antibodies were covalently immobilized at a density ˜8000-10000 resonance units (RU) on carboxy methyl dextran matrix of a CM5 biosensor chip via amine-coupling chemistry to create an anti-hFc IgG chip. […] Association was monitored for 300 seconds and dissociation was monitored for 600 seconds. Surfaces were regenerated between cycles with three pulses of 10 mM glycine-HCl, pH 1.7 injected for 20 seconds at 100 μl/min. HBS-EP+ (1×) with 0.1 mg/ml BSA was used as running buffer throughout the experiment. Experiments were performed at physiological temperature of 37° C. To obtain kinetic rate constants and overall binding affinity, double-referenced data were fit to a two-state kinetic model using Biacore 8K Insight Evaluation software (Cytiva).

B1: AB0089 TriNKET (bispecific antibody, human IgG1, kappa)
chain: QLQLQESGPGLVKPSETLSLTCTVSGFSLTNYGLHWIRQPPGKCLEWIGVIWVGGATDYNPSLKSRVTISVDTSKNQFSLKLSSVQAADTAVYYCAKGDYGDTLDYWGQGTLVTVSSGGGGSGGGGSGGGGSGGGGSDIQMTQSPSSLSASVGDRVTITCHASQNINFWLSWYQQKPGKAPKLLIYEASNLHTGVPSRFSGSGSGTDFTLTISSLQPEDFATYYCQQSHSYPLTFGCGTKLEIKGSDKTHTCPPCPAPELLGGPSVFLFPPKPKDTLMISRTPEVTCVVVDVSHEDPEVKFNWYVDGVEVHNAKTKPREEQYNSTYRVVSVLTVLHQDWLNGKEYKCKVSNKALPAPIEKTISKAKGQPREPRVYTLPPCRDELTKNQVSLTCLVKGFYPSDIAVEWESNGQPENNYKTTPPVLVSDGSFTLYSKLTVDKSRWQQGNVFSCSVMHEALHNHYTQKSLSLSPG
heavy: EVQLVESGGGLVKPGGSLRLSCAASGFTFSSYSMNWVRQAPGKGLEWVSSISSSSSYIYYADSVKGRFTISRDNAKNSLYLQMNSLRAEDTAVYYCARGAPIGAAAGWFDPWGQGTLVTVSSASTKGPSVFPLAPSSKSTSGGTAALGCLVKDYFPEPVTVSWNSGALTSGVHTFPAVLQSSGLYSLSSVVTVPSSSLGTQTYICNVNHKPSNTKVDKKVEPKSCDKTHTCPPCPAPELLGGPSVFLFPPKPKDTLMISRTPEVTCVVVDVSHEDPEVKFNWYVDGVEVHNAKTKPREEQYNSTYRVVSVLTVLHQDWLNGKEYKCKVSNKALPAPIEKTISKAKGQPREPQVCTLPPSRDELTENQVSLTCLVKGFYPSDIAVEWESNGQPENNYKTTPPVLDSDGSFFLYSWLTVDKSRWQQGNVFSCSVMHEALHNHYTQKSLSLSPG
light: DIQMTQSPSSVSASVGDRVTITCRASQGISSWLAWYQQKPGKAPKLLIYAASSLQSGVPSRFSGSGSGTDFTLTISSLQPEDFATYYCQQGVSFPRTFGGGTKVEIKRTVAAPSVFIFPPSDEQLKSGTASVVCLLNNFYPREAKVQWKVDNALQSGNSQESVTEQDSKDSTYSLSSTLTLSKADYEKHKVYACEVTHQGLSSPVTKSFNRGEC
notes: F3' format heterodimer of three chains; human IgG1 Fc with EW-RVT and Y349C/S354C mutations; also called AB0089 Lot AB0089-002; CLEC12A TriNKET AB0089
Binder B1 has a Kd of 90 pM.
